Patent US20240156869A1 (published 2024)

Target: T1, HERV-E (CT-RCC8/9 by the listing's note) peptide on HLA-A*11 (human)
T1 peptide: ATFLGSLTWK
Assay: cytokine release
Description: To test whether A*11 expression conferred target recognition to these transduced cells, a co-culture experiment was performed. […] After 18 hours, the supernatant was collected and an ELSIA was performed on the supernatant for interferon-gamma (IFNγ).
To test whether A*02 expression conferred target recognition to these transduced cells, a co-culture experiment was performed. […] After 18 hours, the supernatant was collected, and an ELISA was performed on the supernatant for Interferon-gamma (IFNγ).

B1: HERV-E-TCR (TCR, V domains shown)
Valpha: GIQVEQSPPDLILQEGANSTLRCNFSDSVNNLQWFHQNPWGQLINLFYIPSGTKQNGRLSATTVATERYSLLYISSSQTTDSGVYFCAVRGGADGLTFGKGTHLIIQP
Vbeta: DTEVTQTPKHLVMGMTNKKSLKCEQHMGHRAMYWYKQKAKKPPELMFVYSYEKLSINESVPSRFSPECPNSSLLNLHLHALQPEDSALYLCASSPPNEKLFFGSGTQLSVL
binding result: recognises
